# T1: human CD19 (human, UniProt P15391 20-556)
# T1 sequence (looked up): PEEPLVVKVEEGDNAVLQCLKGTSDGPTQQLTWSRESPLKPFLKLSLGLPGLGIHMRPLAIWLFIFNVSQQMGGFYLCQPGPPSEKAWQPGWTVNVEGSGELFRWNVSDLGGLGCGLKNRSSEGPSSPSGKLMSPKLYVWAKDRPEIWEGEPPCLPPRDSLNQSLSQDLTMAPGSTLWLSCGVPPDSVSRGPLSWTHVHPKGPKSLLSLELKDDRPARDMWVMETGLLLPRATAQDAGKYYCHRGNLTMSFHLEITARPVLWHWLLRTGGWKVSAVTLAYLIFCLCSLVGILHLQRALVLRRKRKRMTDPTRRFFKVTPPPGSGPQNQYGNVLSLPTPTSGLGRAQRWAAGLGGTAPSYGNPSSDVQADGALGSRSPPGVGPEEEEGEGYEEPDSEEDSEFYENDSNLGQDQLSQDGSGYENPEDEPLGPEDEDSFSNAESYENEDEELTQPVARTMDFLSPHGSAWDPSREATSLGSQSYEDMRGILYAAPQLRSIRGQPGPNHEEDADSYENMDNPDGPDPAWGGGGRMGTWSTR
# Columns and labels:
# human CD19 [1] = target: T1, human CD19; assay: cell-based or functional assay
# [2] = target: FcγRIIIa V158 variant (high-affinity allotype) (human, UniProt P08637 17-254); assay: cell-based or functional assay
# Sequence of FcγRIIIa V158 variant (high-affinity allotype) (P08637 other isoform, or with tags, fused parts or gaps mutant limits assumed): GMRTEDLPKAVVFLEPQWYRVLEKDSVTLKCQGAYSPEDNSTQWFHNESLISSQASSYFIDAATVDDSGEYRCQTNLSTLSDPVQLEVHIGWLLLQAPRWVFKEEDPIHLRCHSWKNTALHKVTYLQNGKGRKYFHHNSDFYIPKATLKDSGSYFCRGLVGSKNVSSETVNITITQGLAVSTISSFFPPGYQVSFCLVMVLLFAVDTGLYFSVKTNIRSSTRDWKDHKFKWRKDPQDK
# [3] = target: FcγRIIIa F158 variant (low-affinity allotype) (human, UniProt P08637 17-254); assay: cell-based or functional assay
# Sequence of FcγRIIIa F158 variant (low-affinity allotype) (P08637 17-254, change not shown): as the sequence (P08637 other isoform, or with tags, fused parts or gaps mutant limits assumed) above, with V160F counted along it
# human CD19 [4] = target: T1, human CD19; assay: cell-based or functional assay; remark: listed apart in the source
# human CD19 [5] = target: T1, human CD19; assay: flow cytometry on Raji (BL) cells, endogenous CD19; average of two experiments
# human CD19 [6] = target: T1, human CD19; assay: flow cytometry on RS4; 11 (ALL) cells, endogenous CD19; average of two experiments
# human CD19 [7] = target: T1, human CD19; assay: flow cytometry on SUP-B15 (ALL) cells, endogenous CD19; average of two experiments
# human CD19 [8] = target: T1, human CD19; assay: flow cytometry on OCI-LY19 (DLBCL) cells, endogenous CD19; average of two experiments
"PBMC co-culture ADCC, specific lysis EC50 (RS4; 11, Raji, KARPAS422) (human CD19 [1]) [pM]","ADCC NFAT reporter activation (Jurkat reporter cells, Raji target cells) [2] [nM]","ADCC NFAT reporter activation (Jurkat reporter cells, Raji target cells) [3] [nM]","anti-proliferative assay EC50, KARPAS422 (DLBCL) (human CD19 [4]) [pM]","anti-proliferative assay EC50, OCI-LY19 (DLBCL) (human CD19 [4]) [pM]","anti-proliferative assay EC50, RS4; 11 (ALL) (human CD19 [4]) [pM]","anti-proliferative assay EC50, SU-DHL-6 (DLBCL) (human CD19 [4]) [pM]","anti-proliferative assay EC50, SUP-B15 (ALL) (human CD19 [4]) [pM]",EC50 (human CD19 [5]) [pM],EC50 (human CD19 [6]) [pM],EC50 (human CD19 [7]) [pM],EC50 (human CD19 [8]) [pM],Binder
70 to 142,0.017,0.018,210,103000,82,311,321,,,,,"ADC-1 (CD19 Phosphorylated GRM agonist ADC: CD19 mAb conjugated to the drug linker of Formula V) (other, zero or one phosphate-GRM drug linker molecule (Formula V) attached via cysteine -S-; cysteine position not stated; afucosylated at ASN-300 (EU: ASN-297); zero, one, two or three phosphate-GRM drug linker molecules (Formula V, Ala-Ala linker) attached via cysteine -S-; cysteine positions not stated) heavy: EVQLVESGGGLVQPGGSLRLSCAASGFTFTTYWINWVRQAPGKGLEWIGNIYPSDSYTNYNQKFKDRATLSVDKSKNTAYLQMNSLRAEDTAVYYCTREDYYGSSSYYAMDYWGQGTLVTVSSASTKGPSVFPLAPSSKSTSGGTAALGCLVKDYFPEPVTVSWNSGALTSGVHTFPAVLQSSGLYSLSSVVTVPSSSLGTQTYICNVNHKPSNTKVDKKVEPKSCDKTHTCPPCPAPELLGGPSVFLFPPKPKDTLMISRTPEVTCVVVDVSHEDPEVKFNWYVDGVEVHNAKTKPREEQYNGSTYRVVSVLTVLHQDWLNGKEYKCKVSNKALPAPIEKTISKAKGQPREPQVYTLPPSREEMTKNQVSLTCLVKGFYPSDIAVEWESNGQPENNYKTTPPVLDSDGSFFLYSKLTVDKSRWQQGNVFSCSVMHEALHNHYTQKSLSLSPGK light: AILMTQSPSSLSASVGDRVTITCKASQDVGTAVAWYQQKPGKAPKLLIYWASTRHTGVPSRFSGSGSGTDFTLTISSLQPEDFATYYCQQYSTYPLTFGQGTKVEIKRTVAAPSVFIFPPSDEQLKSGTASVVCLLNNFYPREAKVQWKVDNALQSGNSQESVTEQDSKDSTYSLSSTLTLSKADYEKHKVYACEVTHQGLSSPVTKSFNRGEC"
,0.027,0.023,,,,,,713,401,683,836,"CD19 mAb (humanized, afucosylated anti-CD19 IgG1 kappa monoclonal antibody of Example 1) (antibody, afucosylated N-glycan at ASN-300 (EU: ASN-297), greater than or equal to 90% afucosylated, Human IgG1, kappa; Made in CHO cells expressing Pseudomonas RMD; also called CD19 antibody; humanized anti-CD19 antibody) heavy: EVQLVESGGGLVQPGGSLRLSCAASGFTFTTYWINWVRQAPGKGLEWIGNIYPSDSYTNYNQKFKDRATLSVDKSKNTAYLQMNSLRAEDTAVYYCTREDYYGSSSYYAMDYWGQGTLVTVSSASTKGPSVFPLAPSSKSTSGGTAALGCLVKDYFPEPVTVSWNSGALTSGVHTFPAVLQSSGLYSLSSVVTVPSSSLGTQTYICNVNHKPSNTKVDKKVEPKSCDKTHTCPPCPAPELLGGPSVFLFPPKPKDTLMISRTPEVTCVVVDVSHEDPEVKFNWYVDGVEVHNAKTKPREEQYNGSTYRVVSVLTVLHQDWLNGKEYKCKVSNKALPAPIEKTISKAKGQPREPQVYTLPPSREEMTKNQVSLTCLVKGFYPSDIAVEWESNGQPENNYKTTPPVLDSDGSFFLYSKLTVDKSRWQQGNVFSCSVMHEALHNHYTQKSLSLSPGK light: AILMTQSPSSLSASVGDRVTITCKASQDVGTAVAWYQQKPGKAPKLLIYWASTRHTGVPSRFSGSGSGTDFTLTISSLQPEDFATYYCQQYSTYPLTFGQGTKVEIKRTVAAPSVFIFPPSDEQLKSGTASVVCLLNNFYPREAKVQWKVDNALQSGNSQESVTEQDSKDSTYSLSSTLTLSKADYEKHKVYACEVTHQGLSSPVTKSFNRGEC"

# — patent publication US20240100181A1 (AbbVie / Abbott, published 2024)
